Test results published in patent US10788489.

What was measured:
[1] = biological target: anti-histidine-tag polyclonal antibody (Bethyl Laboratories, Inc., USA); experiment: competitive immunochromatography, 3.3 µg/mL FBA added; concentration read from the ATG-8 standard curve
[2] = biological target: anti-histidine-tag polyclonal antibody (Bethyl Laboratories, Inc., USA); experiment: competitive immunochromatography, 30 µg/mL FBA added; calculated against added concentration, ATG-8 standard curve as reference
[3] = biological target: anti-histidine-tag polyclonal antibody (Bethyl Laboratories, Inc., USA); experiment: competitive immunochromatography, 1.1 µg/mL FBA added; concentration read from the ATG-8 standard curve
[4] = biological target: anti-histidine-tag polyclonal antibody (Bethyl Laboratories, Inc., USA); experiment: competitive immunochromatography, 3.3 µg/mL FBA added; calculated against added concentration, ATG-8 standard curve as reference
[5] = biological target: anti-histidine-tag polyclonal antibody (Bethyl Laboratories, Inc., USA); experiment: competitive immunochromatography, 10 µg/mL FBA added; calculated against added concentration, ATG-8 standard curve as reference
[6] = biological target: anti-histidine-tag polyclonal antibody (Bethyl Laboratories, Inc., USA); experiment: competitive immunochromatography, 30 µg/mL FBA added; concentration read from the ATG-8 standard curve
[7] = biological target: anti-histidine-tag polyclonal antibody (Bethyl Laboratories, Inc., USA); experiment: competitive immunochromatography, 10 µg/mL FBA added; concentration read from the ATG-8 standard curve
[8] = biological target: anti-histidine-tag polyclonal antibody (Bethyl Laboratories, Inc., USA); experiment: competitive immunochromatography, 0.37 µg/mL FBA added; concentration read from the ATG-8 standard curve
[9] = biological target: anti-histidine-tag polyclonal antibody (Bethyl Laboratories, Inc., USA); experiment: competitive immunochromatography, 1.1 µg/mL FBA added; calculated against added concentration, ATG-8 standard curve as reference
[10] = biological target: anti-histidine-tag polyclonal antibody (Bethyl Laboratories, Inc., USA); experiment: competitive immunochromatography, 0.37 µg/mL FBA added; calculated against added concentration, ATG-8 standard curve as reference

- Calculated concentration [1]: 0.51 µg/mL
- Recovery [2]: 0.39
- Calculated concentration [3]: 0.14 µg/mL
- Recovery [4]: 0.15
- Recovery [5]: 0.18
- Calculated concentration [6]: 11.7 µg/mL
- Calculated concentration [7]: 1.81 µg/mL
- Calculated concentration [8]: 0.056 µg/mL
- Recovery [9]: 0.13
- Recovery [10]: 0.15
B1: fructose bisphosphate aldolase comprising histidine-tag (Cusabio, USA) (enzyme, UniProt P04075 2-364, looked up, species assumed)
Fructose-bisphosphate aldolase A: PYQYPALTPEQKKELSDIAHRIVAPGKGILAADESTGSIAKRLQSIGTENTEENRRFYRQLLLTADDRVNPCIGGVILFHETLYQKADDGRPFPQVIKSKGGVVGIKVDKGVVPLAGTNGETTTQGLDGLSERCAQYKKDGADFAKWRCVLKIGEHTPSALAIMENANVLARYASICQQNGIVPIVEPEILPDGDHDLKRCQYVTEKVLAAVYKALSDHHIYLEGTLLKPNMVTPGHACTQKFSHEEIAMATVTALRRTVPPAVTGITFLSGGQSEEEASINLNAINKCPLLKPWALTFSYGRALQASALKAWGGKKENLKAAQEEYVKRALANSLACQGKYTPSGQAGAAASESLFVSNHAY
modifications: His-tag
